In patent US20100137420:

Columns and labels:
[1] = target: cathepsin B (from THP-1 cell lysates), P07858
recombinant cystatin C = target: T1, recombinant cystatin C
T1 chain: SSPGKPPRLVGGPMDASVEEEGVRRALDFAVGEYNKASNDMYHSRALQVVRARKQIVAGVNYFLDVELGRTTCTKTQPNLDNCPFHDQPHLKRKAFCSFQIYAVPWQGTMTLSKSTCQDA

B1: MMP-2 (protein)
chain: YNFFPRKPKWDKNQITYRIIGYTPDLDPETVDDAFARAFQVWSDVTPLRFSRIHDGEADIMINFGRWEHGDGYPFDGKDGLLAHAFAPGTGVGGDSHFDDDELWTLGEGQVVRVKYGNADGEYCKFPFLFNGKEYNSCTDTGRSDGFLWCSTTYNFEKDGKYGFCPHEALFTMGGNAEGQPCKFPFRFQGTSYDSCTTEGRTDGYRWCGTTEDYDRDKKYGFCPETAMSTVGGNSEGAPCVFPFTFLGNKYESCTSAGRSDGKMWCATTANYDDDRKWGFCPDQGYSLFLVAAHEFGHAMGLEHSQDPGALMAPIYTYTKNFRLSQDDIKGIQELYGASPDIDLGTGPTPTLGPVTPEICKQDIVFDGIAQIRGEIFFFKDRFIWRTVTPRDKPMGPLLVATFWPELPEKIDAVYEAPQEEKAVFFAGNEYWIYSASTLERGYPKPLTSLGLPPDVQRVDAAFNWSKNKKTYIFAGDKFWRYNEVKKKMDPGFPKLIADAWNAIPDNLDAVVDLQGGGHSYFFKGAYYLKLENQSLKSVKFGSIKSDWLGC
**Q.** B1 was tested. Which “cathepsin B activity (fluorogenic Ac-Arg-Arg-AFC assay)” value [1] did it give?
**A.** Cathepsin D and MMP-2 alone had no effect on cathepsin B activity

**Q.** What about the “cleavage of recombinant cystatin C” value (recombinant cystatin C) of the same protein?
**A.** MMP-2 cleaved cystatin C at three unique sites
